According to the RNAGym collection of RNA variant scans (doi:10.1073/pnas.2313332121):
Fewer inactive variants are shown than the library holds.

B1: TPR 5TU (parent)
chain: GGAUCUUCUCGAUCUAACAAAAAAGACAAAUCUGCCACAAAGCUUGAGAGCAUCUUCGGAUGCAGAGGCGGCAGCCUUCGGUGGCGCGAUAGCGCCAACGUUCUCAACUAUGACACGCAAAACGCGUGCUCCGUUGAAUGGAGUUUAUCAUG

Variants of: B1
Experiment: polymerase ribozyme fitness, log enrichment relative to wild type (log ratio); higher = more active; in vitro selection for triplet polymerase activity
How it was run: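 Streptavidin-bead capture of gel-excised extended constructs, followed by RT-PCR, closed a single triplicate in vitro selection round. That round began by annealing PCR-built, transcribed mutant libraries of each subunit of a heterodimeric triplet polymerase ribozyme with a biotinylated primer, the partner subunit and triplets, then incubating them frozen at −7 °C. After Illumina sequencing of inputs and outputs, genotypes needed ≥10 input reads and ≥1 read per output. Fitness is the base-2 logarithm of genotype enrichment over wild-type enrichment, using inverse-variance-weighted replicate averages.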
For GGAUCUUCGCGAUCUAAUAAAAAAGACAAAUCUGCCACAAAGCUGGAAAGCAUCUUCGGAUGCAGAGGCGGCAGCUUUCGGUGGCGCGAUAGCGCCAACGUUCUCAACUAUGACACGCAAAACGCGUGCUCCGUUGAAUGGAGUUUAUCAUG, the “polymerase ribozyme fitness (log ratio)” value was ≤ -4.2. In the case of GGAUCUUCGCGAUCUAACAAAAAUGACAAAUCCGCCACAAAGCUUGAGAGCAUCUUCGGAUGCAGAGGCGGCAGCCUUCGGUGGCGCGAUAGCGCCAACGUUCUCAACUAUGACACGCAAAACGCGUGCUCCGUUGAAUGGACUUUCUCAUG, the “polymerase ribozyme fitness (log ratio)” value is reported as ≤ -4.2. In the case of GGAUCUUCGCGAUCUACCAAAAAAGACAAAUCUGCCACAAAGCUUGAGAGCCUCUUCGGAUGCAGAGGCGGCAGCCUUCGGUGACGCGAUAGCGCCAACGUUCUCAACUAUGACACGAAAAACGCGUGCUCCGUUGAAUGGAGUUUAUCAUG, the “polymerase ribozyme fitness (log ratio)” value is reported as ≤ -4.2. For GGAUCUUCGCGAUCUAACAAAAAAGACAAAUCUGCCACAAAGCUUGAGAGCAUCUUCGGAUGCAGAGGCGGCAGCCUUCGGUGGCGCGAUAGCGCCAACGUUCUCAACUAUGACACGCAAAACGCGUGCUCCGUUGAAUGGGGUUUAUCAUG, the “polymerase ribozyme fitness (log ratio)” value was ≤ -4.2. With GGAUCUUCGCGAUCUAACACAAAAGACAUAUCUGUCACAAAGCUUGCGAGCAUUUACGGAUGCAGAGGCGGCAGCCUUCGGUGGCGCGAUAGCGCAAACGUUCUCAACUAUGACACGCAAAACGCGUGCGCCGUUGAAUGGAGUUUAUCAUG the “polymerase ribozyme fitness (log ratio)” value was ≤ -4.2. For GGAUCUUCGCGAUCUAACCAAAAAGACAAAUCUGCCACAAAGCUUGAGAGCAUCAUCGGAUGCAGAGGCGGCAGCCUUCGGUGGCGCGAUAGCGCCAACGUUCUCAACUAUGACACGCAAAACGCGUGCUCCGUUGAAUGGAGUUUAUCAUG, the “polymerase ribozyme fitness (log ratio)” value was ≤ -4.2. With GGAUCUUCGCGAUCUAAGAAAAAAGACAAUUCUGGCACAAAGCUUGAGAGCAUCUUCGGAUGCAGAGGCGGCAGCCUUCGGUGGCGGGAUAGCGCCAACGUUCUCAACUAUGACACGCAAAACGCGUGCUCCGUUGAAUGGAGUUUGUCAUG the “polymerase ribozyme fitness (log ratio)” value was ≤ -4.2. In the case of GGAUCUUCGCGAUCUAACAAAAAAGACAAAUCUGCCACAAAGCUUGCGAGCAUCUUAGGAUGCAGCGGCGGCAGCCUUCGGUGGCGAGUUAGCGCCAACGUUCUCAACUAUGACACGCAUUAAGUGUGCUCCGUUGAAUGGAGAUUAUCAUG, the “polymerase ribozyme fitness (log ratio)” value is reported as ≤ -4.2. For GGAUCUUCGCGAUCUAACAAAAAAGACAAAUCUGCCACACAGCUUGAGAGCAUCUUCGGAUGCAGAGGCGGCAGCCUUCGGUGGCGCGAUAGCGCCAACGUUCUCAACUAUGACACGCAAAACGCGUGCUCCGUUGAAUGGAGUUUAUCAUG, the “polymerase ribozyme fitness (log ratio)” value was -3.48. For GGAUCUUCGCGAUCUAACAAAACAGACAAAUCUGCCACAAAGCUUGAGAGCAUCUACGGAUGCAGAGGCGGCUGCCUUCGGUGGCCCGAUAGCGCCAACGUUCUCAACUAUGACACGCAAAACGCGUGCUCCGUUGAAUGGAGUUUAUCAUG, the “polymerase ribozyme fitness (log ratio)” value was ≤ -4.2. With GGAUCUUCGAGAUCUAACAAAAAAGACAAAUCUGCCACAAAGUUUGAGAGCAUCUUGGGAUGCAGAGGCGGCAGCCUUCGGUGGCGCGAUAGCGCCAAAGUUCUCAACUAUGACACGCAAAACGCGUGCUCCGUUGAAUGGAGUUUAUCAUG the “polymerase ribozyme fitness (log ratio)” value was ≤ -4.2. For GGAUCUUCGCGAUCUAACAAAAAAGACAAAUGUGCCACAAAGCUUGAGAGCAUCUUCGGAUGCAGAGGCGACAGCCUUCGGUGGCGCGAUAGCGCCAACGUUCUCAACUAUGACACGCAAAACGCGUGCUCCGUUGAAUGGAGUUUAUCAUG, the “polymerase ribozyme fitness (log ratio)” value was ≤ -4.2. With GGAUCUUCGAGAUCUAAUAAAAAAGACAAAUCUGCCACAAAGCUUGAGAGCAUCUUCGGAUGCAGUGGCGGCAGCCUUCGUUGGCGCGAUAGCGCUAACGUUCUCAACUAUGACACGCAAAACGCGUGCUCCGUUGAAUGGAGUUUAUCAUG the “polymerase ribozyme fitness (log ratio)” value was ≤ -4.2. For GGAUCUUCGCGAUCUAACAUAAAAGACAAAUCUGCCACAAAGCUUGAGAGCAUCUUCGGAUGCAGAGGCGGCAGCCUUCGGUGACGCGAUAGCGCCAACGUCCUCAACUAUGACGCGCAAAACGCGUGCUCCGUUGAAUGGAGUUUAUCAUG, the “polymerase ribozyme fitness (log ratio)” value was ≤ -4.2. With GGAUCUUCGGGAUCUAGCAAAGUAGACAAAUCUGCCACAAAGCUUGAGAACAUCUUCGGAUGCAGAGGCGGCGGCCUUCGGUGGCGCGAUAGCGCCAACGUUCUCAACUAUGACACGCAAAACGCGUGCUCCGUUGAAUGGAGUUUAUCAUG the “polymerase ribozyme fitness (log ratio)” value was ≤ -4.2. With GGAUCUUCGCGAUCUGAAAAAAAAGACAAAUCUGCCACAAAGCUUGAGAGCAUCUUCGGAUGUAGAGGCGGCAGCCUUCGGUGGCGCGAUAGCGCCAACGUUCUCAACUAUGACACGCAAAACGCGUGCUCCGUUGAAUGGAGUUUAUCAUG the “polymerase ribozyme fitness (log ratio)” value was ≤ -4.2. With GGAUCUUCGCGAUCUAACAAAAUAGACAAAUCUGCCACAAAGCUUGAGAGCAUCUUCAUAUGCAGAGGCGGCAGCCUUAGUUGGAGCGAUAGCGCCAACGUUCUCAACUAUGACACGCACAACGCGUGCUCCGUUGAACGGAGUUUAUCAUG the “polymerase ribozyme fitness (log ratio)” value was ≤ -4.2. For GGAUCUUCGCGAUCUAACAAAAAAGACAAAUCUGCCACAAAGCUUGAGUGCAUCUUCGGAUGCAGAGGCGGCAGCCUUCGGUGGUGCGAUAGCGCCAACGUUCUCAACUAUGACACGCAAAACGCGUGCUCCGUUGAAUGGAGUUUAUCAUG, the “polymerase ribozyme fitness (log ratio)” value was ≤ -4.2. With GGAUCUUCGCGAUCUUACAAAAAAGACAAAUCUGCCACAAAGCUUGAGAGCAUCUUCGGAUGCUGAGGCGGCAGCCUUCGGUGGGGCGAUAGCGCCAACGUUCUCAACUAUGACACGCAAAACGCGUGCUCCGUCGAAUGGAGGUUAUCUUG the “polymerase ribozyme fitness (log ratio)” value was ≤ -4.2. With GGAUCUUCGGGAUCUAACAAAAAAGACAAAUCUGCCACAAAGCUUGAGAGCAUCUUCGGAUGCAGAGGCGGCAGCCUUCGGUGGCGGGAUAGUGCCAACGUUCUCAACUAUGACACGCAAAACCCGUGCUCCGUUGAAUGGAGUUUAUCAUG the “polymerase ribozyme fitness (log ratio)” value was ≤ -4.2. With GGAUCUUCGCGAUCUAACAAAAAAGAAAAAUCUGCCACAAAGCUUGAGAGCAUCUUCGGAUGCAGAGGCGGCAGCCUUCGGUGGCGCGAUAGCGCAAACGUUCUCAACUAUGACACGCAAAACGCGUGCUCCGUUGAAUGGAGUUUAUCAUG the “polymerase ribozyme fitness (log ratio)” value was ≤ -4.2. With GGAUCUUCGCGAUCUCACAAAAAAGACAACUCUACCACAAAGCUUGAGAGCAUCUUCUGAUGCAGAGGCGGCAGCCUUCGGUGGCGCGAUAGGGCCAACGUUCUAAACUGUGACACGUAAAACGCGUGCUCCGUUGAAUGGAGUUUAUUAUG the “polymerase ribozyme fitness (log ratio)” value was -4.17. For GGAUCUUCGCGAUCUAACAAAAAAGAGAAAGCUGCCACAAAGCUUGAGAGCAUCUUCGGAGGCAGAGGCGGCAGGCUUCGGUGGCGCGAUAGCACCAACGUUCUUAACUAUGACACGCAAAACGCGUGCUCCGUUGAAUGGAGUUUAUCAUG, the “polymerase ribozyme fitness (log ratio)” value was ≤ -4.2. For GGAUCUUCGCGAUCUAACACAAAAGACAAAUGUGCCACAAAGCUUGAGAGCAUCUUCGGAUGCAGAGGCGGCAGCCUUCGGUGGCGCGCUAGCGCCAACGUUCUCAACUAUGACACGCAAAACGCGUGCUCCGUUGAAUGGAGAUUAUCAUG, the “polymerase ribozyme fitness (log ratio)” value was ≤ -4.2. For GGAUCUUCGCGAUCUAACAAAAAAGACAGAUCUGCCACAAAGCUUGCGAGCAACGUCGGAUGCAGAGGCGGCAGCCUUCGGUGGCGCGAUAGCGCCAACGUUCUCAACUAUGACACGCAAAACCCGUGCUCCCUUGAAUGGAAUUUAUCAUG, the “polymerase ribozyme fitness (log ratio)” value was ≤ -4.2. In the case of GGAUCUUCGCGAUCUAACAAAAAAGACAUAUCUGCCACAAAGCUUGAGAGCAGCGUCGGAUGCAGAGGCGGCAGCCUUCGGUGGCGCGAUAGAGCCAACGUUCUCAACUAUGACACGCAAAACGCGUGCUCCGUUGCAUGGAGUUUAUCAUG, the “polymerase ribozyme fitness (log ratio)” value is reported as ≤ -4.2. In the case of GGAUCUUCGCGAUCUAACAAAAAAGACAAAUCUGCCACAAAGCUUGAGAGCGUCUUCGGAUGCAGAGGCGGGAGCCUUCGGUGGCGCGAUAGCGCUAACGUUCUAAACUAUGACGCGCAAAACGCGCGCUCCUUUGAAUGGAGUUUAUCAUG, the “polymerase ribozyme fitness (log ratio)” value is reported as ≤ -4.2. With GGAUCUUCGCGAUCUAACAAAAAAGAGCAAUCUGCCACAAAGCUUGUGAGCAUCUUCGGAUGCAGAGGCAGCAGCCUUCGGUGGCGCGAUCGCGCCAACGUUCUCAACUAUGACACGCAAAACGCGUGCUCCGUUGAAUGGAGUUUAUCAUG the “polymerase ribozyme fitness (log ratio)” value was ≤ -4.2. For GGAUCUUCGCGAUCUUACAAAAAAGACAAAUCUGCCACAAAGCUUGAGAGCAUCUUCGGAUGCAGAGGCGGCAGCCUUCAGUCGCGCGAUAGCGCCAACGUUCUCAACUAUGACACGCAAAACGCGUGCUCCGUUGAAUGGAGUUUAUCAUG, the “polymerase ribozyme fitness (log ratio)” value was -4.08. In the case of GGAUCUUCGCGAUCUAUCAAAAAAGACAAAUCUGCCACAAAGCUUGAGAGCAUCUUCGGAUGCAGAGGCGGCAGCCUUCGGUGGCGCGAUAGCACCAACGUUCUCAACUAUGACACGCAAAACGCGUGCUCCGUUGAAUGGAGUUUAUCAUG, the “polymerase ribozyme fitness (log ratio)” value is reported as ≤ -4.2. For GGAUCUUCGCGAUCUAACAAAAAAGACAAAUAUGCCACAAAGCUUGAGAGCAUCAUUGGAUGCAGAGGCGGCAGCCUUCGGUGGCGCGAUAGGGCCAACGUUCUCAACUAUGACACGCAAAACGCGUGCUCCGUUGAAUGGCGUUUACCAUG, the “polymerase ribozyme fitness (log ratio)” value was -4.04. With GGAUCUUCGCGAUCUAACAACAAAGACAAAUCUGUCACAAAGCUUGAGAGCAUCUUCGGAUGCAGAGGCGGCAGCCUUCGGUGGGGCGAUAGCGCCAACGUUCUCAACUAUGACACGCAAAACGCGUGCUCCGUUGAAUGGAGUUUAUCAUG the “polymerase ribozyme fitness (log ratio)” value was ≤ -4.2. For GGAUCUUCGCGAUAUAACAAAAAAGACAAAUCUGCCACAAAGCUUGAGAGCAUCUUCGGAUGCAGAGGCGGCAGCCUUCGGUGGUGCGAUAGCGCCAACGUUCUCAACUAUGACACGCAAAACGCGUGCUCCGUUGAAUGUAGUUUAUCAUG, the “polymerase ribozyme fitness (log ratio)” value was -4.19. In the case of GGAUCUUCGCGAUCUAACAAAAAAGACAAAUCUGCCUCAAAGCUUGAGAGCAUCUUUGGAUGCAGAGGCGGCAGCCUUCGGUGGUGCGAUAGCGCCAACGUUCUCAACUAUGACACGCAAAACGCGUACUCCGUUGAAUGAAGUUAAUCAUG, the “polymerase ribozyme fitness (log ratio)” value is reported as ≤ -4.2. For GGAUCUUCGCGAUCUAACAAAAAAGACACAUGUGCCACAAAGCUUGAGAGCAUCUUCCGAUGCAGAGGCGGCAGCAUUAGGUGGCGCGAUAGCGCCAACGUUCUCAACUAUGACACGGAAAACGCGUGCUCCGUUGAAUGCAAUUUAUCAUG, the “polymerase ribozyme fitness (log ratio)” value was ≤ -4.2. For GGAUCUUCGCGAUCUAACAAAAAAGACACAUCUGCCACAAAGCUUGAGAGCAUCUUCGAAUGCAGAGGCGGCAGCUUUCGGUGGCGGGAUAGCGCCAACGUUCUCAACUAUGACACGCACAACGCGUGCUCCGUUGAAUGGAGUUUAUCAUG, the “polymerase ribozyme fitness (log ratio)” value was ≤ -4.2. For GGAUCUUCGCGAUCUAACAAAAAAGACAAAUCUGCCACAAAGCUUGAGAGCAUCUUCGGAUGCAGAGGCGGCUGCCUUCGGUGGCGUGAUAGCGCCAACGUACUGAAAUAUGACACGCAAAACGCGUGCUCCGUUGAAUGGAGUUUAUCAUG, the “polymerase ribozyme fitness (log ratio)” value was ≤ -4.2. For GGAUCUUCGCGAUCUAACAAAAUAGACAAAUCUCCCACAAAGCUUGAGAGCAUCUUAGGAUGCAGAGGCGGCAGCCUUCGGUGGCGCGAUAGAGCCAACGUUCUCAACUAUGACACGCAAAACGCGUGCUCCGUUGAAUGGAGUUUAUCAUG, the “polymerase ribozyme fitness (log ratio)” value was ≤ -4.2.
